Results reported in patent publication US20250152746A1, “BASE EDITING OF ANGPTL3 AND METHODS OF USING SAME FOR TREATMENT OF DISEASE” (Verve Therapeutics, Inc., priority 2020, published 2025).
m = 2'-O-methyl; r = 2'-OH (RNA)

B1: GA220: PCSK9 gRNA; protospacer GTGCTCAACTGCCAAGGGAA (SEQ ID NO: 214) (nucleic acid)
guide: GUGCUCAACUGCCAAGGGAAGUUUUAGAGCUAGAAAUAGCAAGUUAAAAUAAGGCUAGUCCGUUAUCAACUUGAAAAAGUGGCACCGAGUCGGUGCUUUU
modifications: sugars from the 5' end m3 r94 m3, linkages s3 o93 s3 (s phosphorothioate, o phosphodiester), T or U not given here
B2: GA223: PCSK9 gRNA; protospacer GCTGACCACCCCTGCCAGGT (SEQ ID NO: 217) (nucleic acid)
guide: GCUGACCACCCCUGCCAGGUGUUUUAGAGCUAGAAAUAGCAAGUUAAAAUAAGGCUAGUCCGUUAUCAACUUGAAAAAGUGGCACCGAGUCGGUGCUUUU
modifications: sugars from the 5' end m3 r94 m3, linkages s3 o93 s3 (s phosphorothioate, o phosphodiester), T or U not given here
B3: GA160: PCSK9 gRNA; protospacer GCCTTGCGTTCCGAGGAGGA (SEQ ID NO: 154) (nucleic acid)
guide: GCCUUGCGUUCCGAGGAGGAGUUUUAGAGCUAGAAAUAGCAAGUUAAAAUAAGGCUAGUCCGUUAUCAACUUGAAAAAGUGGCACCGAGUCGGUGCUUUU
modifications: sugars from the 5' end m3 r94 m3, linkages s3 o93 s3 (s phosphorothioate, o phosphodiester), T or U not given here
B4: GA225: PCSK9 gRNA; protospacer GGCATCGTCCCGGAAGTTGC (SEQ ID NO: 219) (nucleic acid)
guide: GGCAUCGUCCCGGAAGUUGCGUUUUAGAGCUAGAAAUAGCAAGUUAAAAUAAGGCUAGUCCGUUAUCAACUUGAAAAAGUGGCACCGAGUCGGUGCUUUU
modifications: sugars from the 5' end m3 r94 m3, linkages s3 o93 s3 (s phosphorothioate, o phosphodiester), T or U not given here
B5: GA218: PCSK9 gRNA; protospacer CGCTGACCACCCCTGCCAGG (SEQ ID NO: 212) (nucleic acid)
guide: CGCUGACCACCCCUGCCAGGGUUUUAGAGCUAGAAAUAGCAAGUUAAAAUAAGGCUAGUCCGUUAUCAACUUGAAAAAGUGGCACCGAGUCGGUGCUUUU
modifications: sugars from the 5' end m3 r94 m3, linkages s3 o93 s3 (s phosphorothioate, o phosphodiester), T or U not given here
B6: GA221: PCSK9 gRNA; protospacer TCATGGCACCCACCTGGCAG (SEQ ID NO: 215) (nucleic acid)
guide: UCAUGGCACCCACCUGGCAGGUUUUAGAGCUAGAAAUAGCAAGUUAAAAUAAGGCUAGUCCGUUAUCAACUUGAAAAAGUGGCACCGAGUCGGUGCUUUU
modifications: sugars from the 5' end m3 r94 m3, linkages s3 o93 s3 (s phosphorothioate, o phosphodiester), T or U not given here
B7: GA219: PCSK9 gRNA; protospacer GGCAGGGGTGGTCAGCGGCC (SEQ ID NO: 213) (nucleic acid)
guide: GGCAGGGGUGGUCAGCGGCCGUUUUAGAGCUAGAAAUAGCAAGUUAAAAUAAGGCUAGUCCGUUAUCAACUUGAAAAAGUGGCACCGAGUCGGUGCUUUU
modifications: sugars from the 5' end m3 r94 m3, linkages s3 o93 s3 (s phosphorothioate, o phosphodiester), T or U not given here
B8: GA216: PCSK9 gRNA; protospacer CCGGGATGCCGGCGTGGCCA (SEQ ID NO: 210) (nucleic acid)
guide: CCGGGAUGCCGGCGUGGCCAGUUUUAGAGCUAGAAAUAGCAAGUUAAAAUAAGGCUAGUCCGUUAUCAACUUGAAAAAGUGGCACCGAGUCGGUGCUUUU
modifications: sugars from the 5' end m3 r94 m3, linkages s3 o93 s3 (s phosphorothioate, o phosphodiester), T or U not given here
B9: GA224: PCSK9 gRNA; protospacer GGCCGCTGACCACCCCTGCC (SEQ ID NO: 218) (nucleic acid)
guide: GGCCGCUGACCACCCCUGCCGUUUUAGAGCUAGAAAUAGCAAGUUAAAAUAAGGCUAGUCCGUUAUCAACUUGAAAAAGUGGCACCGAGUCGGUGCUUUU
modifications: sugars from the 5' end m3 r94 m3, linkages s3 o93 s3 (s phosphorothioate, o phosphodiester), T or U not given here
B10: GA222: PCSK9 gRNA; protospacer TGGCAGGGGTGGTCAGCGGC (SEQ ID NO: 216) (nucleic acid)
guide: UGGCAGGGGUGGUCAGCGGCGUUUUAGAGCUAGAAAUAGCAAGUUAAAAUAAGGCUAGUCCGUUAUCAACUUGAAAAAGUGGCACCGAGUCGGUGCUUUU
modifications: sugars from the 5' end m3 r94 m3, linkages s3 o93 s3 (s phosphorothioate, o phosphodiester), T or U not given here
B11: GA215: PCSK9 gRNA; protospacer CAGCGGCCGGGATGCCGGCG (SEQ ID NO: 209) (nucleic acid)
guide: CAGCGGCCGGGAUGCCGGCGGUUUUAGAGCUAGAAAUAGCAAGUUAAAAUAAGGCUAGUCCGUUAUCAACUUGAAAAAGUGGCACCGAGUCGGUGCUUUU
modifications: sugars from the 5' end m3 r94 m3, linkages s3 o93 s3 (s phosphorothioate, o phosphodiester), T or U not given here
B12: GA227: PCSK9 gRNA; protospacer GTCCCGGAAGTTGCCGGCAG (SEQ ID NO: 221) (nucleic acid)
guide: GUCCCGGAAGUUGCCGGCAGGUUUUAGAGCUAGAAAUAGCAAGUUAAAAUAAGGCUAGUCCGUUAUCAACUUGAAAAAGUGGCACCGAGUCGGUGCUUUU
modifications: sugars from the 5' end m3 r94 m3, linkages s3 o93 s3 (s phosphorothioate, o phosphodiester), T or U not given here
B13: GA217: PCSK9 gRNA; protospacer GTGGTCAGCGGCCGGGATGC (SEQ ID NO: 211) (nucleic acid)
guide: GUGGUCAGCGGCCGGGAUGCGUUUUAGAGCUAGAAAUAGCAAGUUAAAAUAAGGCUAGUCCGUUAUCAACUUGAAAAAGUGGCACCGAGUCGGUGCUUUU
modifications: sugars from the 5' end m3 r94 m3, linkages s3 o93 s3 (s phosphorothioate, o phosphodiester), T or U not given here
B14: GA214: PCSK9 gRNA; protospacer CCTTGGCCACGCCGGCATCC (SEQ ID NO: 208) (nucleic acid)
guide: CCUUGGCCACGCCGGCAUCCGUUUUAGAGCUAGAAAUAGCAAGUUAAAAUAAGGCUAGUCCGUUAUCAACUUGAAAAAGUGGCACCGAGUCGGUGCUUUU
modifications: sugars from the 5' end m3 r94 m3, linkages s3 o93 s3 (s phosphorothioate, o phosphodiester), T or U not given here

Tests used:
[1] = test system: PCSK9 gene; assay: PCSK9 gRNA/SpCas9 editing in primary cynomolgus hepatocytes (Tables 2, 22); type: cell-based, cynomolgus monkey; conditions: SpCas9 mRNA MS002 1:1 by weight; for Cyno Primary Hepatocyte Editing % 100: 100 ng/RNA/mL; for Cyno Primary Hepatocyte Editing % 500: 500 ng/RNA/mL; for Cyno Primary Hepatocyte Editing % 2500: 2500 ng/RNA/mL
[2] = test system: PCSK9 gene; assay: PCSK9 gRNA/SpCas9 editing in primary human hepatocytes (Tables 2, 4); type: cell-based; conditions: SpCas9 mRNA MS002 1:1 by weight; for Human Primary Hepatocyte Editing % 100: 100 ng/RNA/mL; for Human Primary Hepatocyte Editing % 500: 500 ng/RNA/mL; for Human Primary Hepatocyte Editing % 2500: 2500 ng/RNA/mL
Summary of the method: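 Primary human hepatocytes co-transfected with PCSK9 gRNA plus SpCas9 mRNA (1:1 by weight) at 2500, 500 or 100 ng RNA/mL, or 2500–250 ng/mL for tracr-modified guides. Editing at the target site read by amplicon next-generation sequencing of extracted genomic DNA.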

Molecule | Cyno Primary Hepatocyte Editing % 100 [1] [%] | Cyno Primary Hepatocyte Editing % 500 [1] [%] | Cyno Primary Hepatocyte Editing % 2500 [1] [%] | Human Primary Hepatocyte Editing % 100 [2] [%] | Human Primary Hepatocyte Editing % 500 [2] [%] | Human Primary Hepatocyte Editing % 2500 [2] [%]
B1 | 3.13 | 12.39 | 45.17 | 2.17 | 9.12 | 21.87
B2 | 3.46 | 21.4 | 57.58 | 1.44 | 7.28 | 17.5
B3 | 1.38 | 6.60 | 23.15 | 1.19 | 5.58 | 23.3
B4 | 2.03 | 3.11 | 8.57 | 0.89 | 6.39 | 18.82
B5 | 5.42 | 19.95 | 58.66 | 3.81 | 8.96 | 31.71
B6 | 2.82 | 20.27 | 57.4 | 1.11 | 7.48 | 29.35
B7 | 0.35 | 11.89 | 48.67 | 1.28 | 4.57 | 15.97
B8 | 1.77 | 4.97 | 37.79 | 0.95 | 3.7 | 14.65
B9 | 2.61 | 12.34 | 47.5 | 1.01 | 2.19 | 13.02
B10 | 0.88 | 3.32 | 16.7 | 0.5 | 0.66 | 2.04
B11 | – | 1.07 | 7.52 | 0.13 | 1.01 | 4.94
B12 | 0.56 | 4.58 | 32.41 | 0.02 | 8.29 | 32.09
B13 | 2.6 | 10.2 | 39.21 | 0.77 | 2.75 | 15.31
B14 | 3.06 | 14.84 | 50.35 | 1.94 | 6.28 | 22.92
